# Reference: paper PMC10979024 (Nature Communications, 2024)
# Numbering of substitutions follows the chain as printed.
# B1: ChCODH2 F41A (enzyme, Carboxydothermus hydrogenoformans)
# chain: MAKQNLKSTDRAVQQMLDKAKREGIQTVWDRYEAMKPQCGAGETGLCCRHCLQGPCRINPFGDEPKVGICGATAEVIVARGLDRSIAAGAAGHSGHAKHLAHTLKKAVQGKAASYMIKDRTKLHSIAKRLGIPTEGQKDEDIALEVAKAALADFHEKDTPVLWVTTVLPPSRVKVLSAHGLIPAGIDHEIAEIMHRTSMGCDADAQNLLLGGLRCSLADLAGCYMGTDLADILFGTPAPVVTESNLGVLKADAVNVAVHGHNPVLSDIIVSVSKEMENEARAAGATGINVVGICCTGNEVLMRHGIPACTHSVSQEMAMITGALDAMILDYQCIQPSVATIAECTGTTVITTMEMSKITGATHVNFAEEAAVENAKQILRLAIDTFKRRKGKPVEIPNIKTKVVAGFSTEAIINALSKLNANDPLKPLIDNVVNGNIRGVCLFAGCNNVKVPQDQNFTTIARKLLKQNVLVVATGCGAGALMRHGFMDPANVDELCGDGLKAVLTAIGEANGLGGPLPPVLHMGSCVDNSRAVALVAALANRLGVDLDRLPVVASAAEAMHEKAVAIGTWAVTIGLPTHIGVLPPITGSLPVTQILTSSVKDITGGYFIVELDPETAADKLLAAINERRAGLGLPW
# notes: Ni-Fe carbon monoxide dehydrogenase 2 (ChCODH2), Carboxydothermus hydrogenoformans, locus Chy_0085; site-directed variant in pET28a; source: E. coli BL21(DE3) with pRKISC, purified (Ni-NTA; size-exclusion chromatography)
# B2: ChCODH2 wild type (carbon monoxide dehydrogenase 2 of Carboxydothermus hydrogenoformans) (enzyme)
# chain: B1 chain with A41F
# notes: Ni-Fe carbon monoxide dehydrogenase 2 (ChCODH2), Carboxydothermus hydrogenoformans, locus Chy_0085; synthesized DNA in pET28a; Carries Fe-S and Ni-Fe clusters (B, C, D); also called ChCODH2 WT; WT; source: E. coli BL21(DE3) with pRKISC, purified (Ni-NTA; size-exclusion chromatography)
# Key:
# [1] = target: T1, DvCODH (Nitratidesulfovibrio vulgaris, UniProt Q72A99); type: biochemical; settings: CO-saturated 50 mM HEPES/NaOH pH 8, 2 mM DTE, 20 mM viologen, 30 °C
# T1 construct: gene cooS
# [2] = target: the molecule itself; test: SEC; size exclusion chromatography of the purified enzyme; measured molecular mass compared with the theoretical mass of the dimer
# T1 sequence (Q72A99 1-629): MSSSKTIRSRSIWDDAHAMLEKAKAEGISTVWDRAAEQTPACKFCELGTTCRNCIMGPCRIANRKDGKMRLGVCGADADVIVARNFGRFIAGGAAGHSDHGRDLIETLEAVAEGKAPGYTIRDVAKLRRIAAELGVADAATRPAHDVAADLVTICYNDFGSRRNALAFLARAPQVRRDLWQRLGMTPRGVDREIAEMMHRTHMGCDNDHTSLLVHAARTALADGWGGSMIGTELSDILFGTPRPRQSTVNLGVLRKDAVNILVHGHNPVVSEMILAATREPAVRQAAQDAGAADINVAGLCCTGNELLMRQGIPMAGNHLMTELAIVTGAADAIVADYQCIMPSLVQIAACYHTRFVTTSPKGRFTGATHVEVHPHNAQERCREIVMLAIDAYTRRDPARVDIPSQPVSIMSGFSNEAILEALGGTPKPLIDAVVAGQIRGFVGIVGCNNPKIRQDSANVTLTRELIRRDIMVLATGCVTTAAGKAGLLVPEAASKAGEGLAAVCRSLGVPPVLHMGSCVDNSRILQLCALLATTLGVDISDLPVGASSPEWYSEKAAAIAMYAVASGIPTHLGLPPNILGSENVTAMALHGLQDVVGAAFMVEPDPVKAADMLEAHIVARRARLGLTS
molecule,measurement,setting,value
"C[n+]1ccc(-c2cc[n+](C)cc2)cc1 [MV, methyl viologen]","CO-dependent viologen reduction, relative activity",[1],"essential for viologen reduction using the four mediators MV, EV, BV, and diquat (DQ)"
B1,stoichiometry N,[2],2
B2,binding result,[2],binds
